Data from patent US20160185837A1 (Medimmune Limited, priority 2013, published 2016).

Key:
[1] = molecular target: T1, mouse GLP-1 receptor (mGLP-1r) (Mus musculus, UniProt O35659); test: BSA-cAMP assay, cells expressing mouse GLP-1 receptor; assay type: cell-based
T1 construct: expressed in transfected cells; host or cells: HEK293s or CHO cells
T1 sequence (O35659 22-463): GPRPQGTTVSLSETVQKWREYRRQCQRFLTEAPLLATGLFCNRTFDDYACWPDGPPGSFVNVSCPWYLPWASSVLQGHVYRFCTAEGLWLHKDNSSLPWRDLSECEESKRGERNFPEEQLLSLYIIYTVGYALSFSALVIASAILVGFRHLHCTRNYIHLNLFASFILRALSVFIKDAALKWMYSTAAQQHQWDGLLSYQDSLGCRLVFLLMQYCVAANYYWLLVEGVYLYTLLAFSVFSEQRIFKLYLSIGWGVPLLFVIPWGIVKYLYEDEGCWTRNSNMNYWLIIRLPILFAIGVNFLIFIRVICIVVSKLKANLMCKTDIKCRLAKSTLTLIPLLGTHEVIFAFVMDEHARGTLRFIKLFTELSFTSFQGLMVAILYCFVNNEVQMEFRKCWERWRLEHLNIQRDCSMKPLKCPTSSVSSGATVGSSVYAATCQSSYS
Method in brief: (§1)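 EC50 is the midpoint of an unconstrained 4-parameter logistic fit to HTRF cAMP data, expressed as percent of maximal native agonist response, from two separate occasions. Rodent (mouse, rat) GLP-1R- or GIPR-expressing cells were incubated with compound 30 min at room temperature in 0.1% BSA medium, in duplicate.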

rat GIP receptor (rGIPr) = molecular target: T2, rat GIP receptor (rGIPr) (Rattus norvegicus, UniProt P43219); test: BSA-cAMP assay, cells expressing rat GIP receptor; assay type: cell-based
T2 construct: expressed in transfected cells; host or cells: HEK293s or CHO cells
T2 sequence (P43219 19-455): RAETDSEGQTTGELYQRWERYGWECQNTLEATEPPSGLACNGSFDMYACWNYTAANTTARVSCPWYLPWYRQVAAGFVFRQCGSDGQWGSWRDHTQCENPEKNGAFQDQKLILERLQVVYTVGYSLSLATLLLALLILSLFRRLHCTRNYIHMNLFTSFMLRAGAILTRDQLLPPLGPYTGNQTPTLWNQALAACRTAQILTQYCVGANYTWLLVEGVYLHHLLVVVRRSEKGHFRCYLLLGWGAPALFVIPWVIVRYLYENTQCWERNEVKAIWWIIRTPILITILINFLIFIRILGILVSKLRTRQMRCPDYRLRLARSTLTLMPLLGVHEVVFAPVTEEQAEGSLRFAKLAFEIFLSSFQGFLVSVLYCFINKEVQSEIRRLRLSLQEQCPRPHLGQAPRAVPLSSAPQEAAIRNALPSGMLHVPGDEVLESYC
Method in brief: as §1

PK by Fc Detection = test: PK by Fc Detection
Procedure: Table printed on a drawing sheet, FIG. 3A-C
Title: PK by Fc Detection
Circles: IV injection of 1 mg/kg, squares: subcutaneous injection of 1 mg/kg. Pharmacokinetic parameters Cmax, bioavailability (F %) and half-life T1/2 are compared in panel C.
Circles: IV injection of 1 mg/kg, squares: subcutaneous injection of 1 mg/kg. Pharmacokinetic parameters Cmax, bioavailability (F %) and half life T112 are compared in panel F.
First reader's note: Panel C of FIG. 3A-C; the title 'PK by Fc Detection' is printed over the whole sheet, including plot panels A and B.

blood glucose = test: Oral glucose tolerance test (OGTT) in mouse model; assay type: in vivo, C57 male mice
Procedure: The effect of IP088 on glycemic control in a mouse model was carried out as follows. Twenty-one (21) male C57 male mice (11-12 weeks old) were purchased from Taconic, Denmark and acclimatized for 3 weeks before experimentation. Throughout the acclimatization period the animals are offered ad libitum chow and tap water. Mice were single housed one week prior to the study. On day 1 of the study animals were randomized into 4 groups based on body weight (n=5-6 per group), and were administered the following compounds subcutaneously four hours (IP088, IP040, and GLP1a-Fc) or two hours (liraglutide) prior to each oral glucose tolerance test:
Group 6: Liraglutide (GLP-1 analog, Novo Nordisk) 0.2 mg/kg S.C.
Group 7: GLP1a-Fc (GLP-1 agonist) 1 mg/kg S.C.
Group 8: IP088 1 mg/kg S.C.
Oral glucose tolerance tests (OGTT) were performed on days 0 and 2, both after a 4-hour fast. […] Blood glucose was measured from tail vein blood before glucose (at t=−240, −120 and 0 min, baseline) and after glucose administration at t=15, 30, 60 and 120 min. Blood samples (tail vein) were collected into […] heparinized glass capillary tubes and immediately suspended in buffer (0.5 ml of glucose/lactate system solution (EKF-diagnostics, Germany) and analyzed for glucose on the test day using a BIOSEN c-Line glucose meter (EKF-diagnostics, Germany) according to manufacturer's instructions.

B1: IP367 (protein)
chain: YSEGTFTSDYRILKERQAIDEFIAWLLKGGAAAGGSGSTASSGSGSATGGGGAATHTCPPC
EC50 ([1]; Batch 1, BSA-cAMP assay, read-out: mGLP1r cAMP activity EC50): 390 nM | EC50 (rat GIP receptor (rGIPr); Batch 1, BSA-cAMP assay, read-out: rGIPr cAMP activity EC50): 9.9 pM

B2: IP088: Fc fusion, IgG1-TM, SEQ ID NO:105; agonist peptide YSEGTFTSDYSKLLEEEAVRLFIEWLVKGP (SEQ ID NO:15) (protein)
chain: YSEGTFTSDYSKLLEEEAVRLFIEWLVKGPAAAGGSGSTASSGSGSATGGGGAATHTCPPCPAPEF
modifications: also: Fc fusion, IgG1-TM
potency for GLP-1r, in words ([1]; mouse receptor): high potency | Cmax (PK by Fc Detection): 9.8 µg/mL | F (%) (PK by Fc Detection): 67% | t½ (PK by Fc Detection): 71 h | potency for GIPr, in words (rat GIP receptor (rGIPr); rat receptor): high potencies | glycemic control in OGTT compared with GLP1a-Fc, in words (blood glucose; 1 mg/kg S.C. each, OGTT days 0 and 2): superior to GLP1a-Fc at glycemic control | glucose lowering effect in OGTT, in words (blood glucose; 1 mg/kg S.C. four hours before OGTT, days 0 and 2, 2 g/kg oral glucose): excellent glucose lowering effects
